Experimental findings from patent US20060153775A1 are described below.

Positions of bridges follow the written chain, without caps; N, C: chain ends. Non-standard residues stand in square brackets, D forms with d. No end group written: not given here. AEEA = NCCOCCOCC(=O)O

Assay [1] addresses binding target for TKPPR on HAEC (human aortic endothelial cells). Nature of the assay: fluorescent beads on confluent HAEC, static 30 min, image analysis.
Assay [2] shares this target. Nature of the assay: beads perfused over HAEC in a parallel plate flow cell, 37 C.
Assay [3] has the same target. Nature of the assay: competition of 2% D47 bubble binding to HAEC; D55 50 µM.
The target is the same in assay [4]. As to the kind of experiment: competition of 2% D47 bubble binding to HAEC; D55 100 µM.
The target is the same in assay [5]. As to the kind of experiment: competition of 2% D47 bubble binding to HAEC; D55 200 µM.
Another assay deals with VEGF receptors on HUVECs. As to the kind of experiment: competition with 125I-VEGF for binding to HUVECs.
Assay [6] has as its target binding target for TKPPR on HAEC (human aortic endothelial cells). As to the kind of experiment: competition of 1% D47 bubble binding to HAEC; TKPR 100 µM.
The target is the same in assay [7]. Nature of the assay: competition of 1% D47 bubble binding to HAEC; TKPR 50 µM.
Assay [8] shares this target. Nature of the assay: competition of 1% D47 bubble binding to HAEC; TKPR 5 µM.
The target is the same in assay [9]. Nature of the assay: competition of 1% D47 bubble binding to HAEC; TKPR 10 µM.
Assay [10] has the same target. Nature of the assay: competition of 1% D47 bubble binding to HAEC; TKPR 25 µM.
Assay [11] has the same target. Nature of the assay: competition of 2% D47 bubble binding to HAEC; D54 200 µM.
Assay [12] shares this target. Nature of the assay: competition of 2% D47 bubble binding to HAEC; D54 50 µM.
Assay [13] has the same target. Nature of the assay: competition of 2% D47 bubble binding to HAEC; D54 100 µM.

B1: TKPPR-conjugated red fluorescent microspheres (peptide)
peptide: TKPPR
modifications: also: amino group coupled by EDAC to carboxylate-modified FluoSpheres, which amino group not given here
As for B1, the Integrated density of bound beads (arbitrary units) in [1] came to 230. Further, in assay [2], the Bound at 1.53 dynes/cm^2 came to 86 beads.
For the molecule CTKPPRC (disulfide 1-7 (inferred)) [cyclic disulfide CTKPPRC (D55)], the Bubbles Bound % in presence of competitor was 97 % of control in [3], 71 % of control in assay [4] and 99 % of control in [5].

B2: TKPPR tetramer D41, OG-(TKPPR)4 (peptide)
peptide: [AEEA]TKPPR
modifications: also: tetramer of four TKPPR on a branched non-peptide scaffold, one Oregon Green label on scaffold
In general, IC50 refers to the concentration at which inhibition is half-maximal. High values mean a need for much substance, low ones inhibition by little substance. In the assay with VEGF receptors on HUVECs, B2 yielded a 50% inhibitory concentration (IC50) of 10 µM.
Turning to TKPR [Tuftsin (TKPR)], the Bubbles Bound in presence of competitor in assay [6] was found to be 556 bubbles; in assay [7], 904 bubbles; in assay [8], 1150 bubbles; in assay [9], 976 bubbles; in [10], 1170 bubbles.
GRGDSP (also: coupled by EDAC to carboxylate-modified FluoSpheres, site not given here) [GRGDSP-conjugated fluorescent microspheres] gave an Integrated density of bound beads (arbitrary units) in assay [1] of 28.6.
Turning to CTKPPRC [linear CTKPPRC (D54)], the Bubbles Bound % in presence of competitor was 88 % of control in assay [11], 97 % of control in assay [12] and 78 % of control in assay [13].
